“Also recorded” adds a separate entry of the source. Blank lines part the entries; values can stand above or below the molecule they belong to. No end group written: not given here. Me3 = trimethyl-lysine; Me2 = dimethyl-lysine
B2: SHL from Populus trichocarpa (PtSHL), wild type (natural protein)
chain: SMAKAKAPRRTLDSYTVKPINKTVKPGDCVLMRPSDPSKPSYVAKIERIESDGRGPNVRVRVRWYYRPEESIGGRRQFHGSKEVFLSDHYDTQSADTIEGKCMVHSFKNYTKLDAVGNDDFFCRFEYNSSTGAFNPDRVAVYCKCEMPYNPDDLMVQCEGCSDWFHPACIEMSAEEAKRLDHFFCENCSSEGQKKLQNSHNTRQSDAKAETKRRRR

Key:
PtSHL Y65A = test: ITC, PtSHL Y65A; set-up: species or system Populus trichocarpa; details: 20 °C, pH 8.0, NDB, no detectable binding
Description: (§1) The full-length AtSHL was cloned into a pET-Sumo vector to fuse a hexahistidine-sumo tag to the target protein. The plasmids were transformed into Escherichia coli strain BL21(DE3) RIL (Stratagene). The protein expression was induced by adding IPTG to a final concentration of 0.2 mM upon the OD600 of cell culture reaching to 0.7, followed by overnight induction at 20 °C. The recombinant protein was purified using a HisTrap column (GE Healthcare). The hexahistidine-sumo tag was cleaved by ulp1 protease and removed by a second step HisTrap column. The AtSHL protein was further purified using a Superdex G200 column (GE Healcare). The PtSHL was cloned, expressed, and purified using the same strategy as AtSHL. All mutant versions of SHL were generated using a PCR based method and expressed and purified using the same protocol as wild type SHL protein. The peptides were purchased from the GL Biochem Company (Shanghai).
(§2) The interaction between SHL and histone peptides was monitored on a Microcal PEAQ-ITC instrument (Malvern) at 20 °C. An additional artificial tyrosine residue was added to the C-terminus of the peptide in the ITC experiment for accurately measuring the concentration of peptide by OD280. The protein was dialyzed against a buffer of 100 mM NaCl and 20 mM Tris-HCl, pH 8.0 for 3 h and the lyophilized peptides were dissolved into the same buffer. […]

PtSHL Y41A = test: ITC, PtSHL Y41A; set-up: species or system Populus trichocarpa; details: 20 °C, pH 8.0, NDB, no detectable binding
Description: as §1, §2

full-length AtSHL [1] = test: Histone peptide microarray, full-length AtSHL; assay type: binding, Arabidopsis thaliana; details: 500 nM GST-tagged SHL, 50 mM HEPES, pH 7.5, 50 mM NaCl, RT, 2 h; anti-GST, fluorescence 635 nm; average of three replicate spots
Description: Peptide microarray assay was performed as following a previous study. Specifically, the peptide array slide was blocked with blocking solution (1 × PBS, 0.05% Tween-20 pH 7.4, 1% BSA) at 4 °C overnight. After washing three times with 1 ml TTBS buffer (10 mM Tris-HCl, pH 7.5, 150 mM NaCl, 0.05% Tween-20), the slide was incubated with 500 nM GST-tagged recombinant SHL in 1 ml binding buffer (50 mM HEPES, pH 7.5, 50 mM NaCl, 5% glycerol, 0.4% BSA, 2 mM DTT) at RT for 2 h. The slide was then washed with TTBS three times and incubated with an anti-GST antibody (Thermo Fisher, CAB4169, 1:3000 dilution) in TBS with 1% BSA for 1 h at RT. After washing with TTBS three times, the slide was incubated with an anti-rabbit IRDye 650 secondary antibody (LI-COR, P/N 926-65020, 1:5000 dilution) in 1 ml TBS buffer with 1% BSA for 1 h. The slide was washed with TTBS three times, dried by centrifugation, and imaged at dual wavelengths of 532 and 635 nm on Axon GenePix 4000B (Molecular Devices). The laser power was set to 100%, with automatic gain adjustment (0.05% saturation tolerance) for dual photomultipliers. […] Signal intensities were quantified by GenePix Pro 6.1 software (Molecular Devices). […] For each peptide species, an average was calculated from three replicate spots. […]

PtSHL = test: ITC, PtSHL (wild type) with histone peptides; set-up: species or system Populus trichocarpa; details: Microcal PEAQ-ITC, 20 °C, 100 mM NaCl, 20 mM Tris-HCl, pH 8.0, peptide with additional C-terminal tyrosine, PtSHL WT, NDB, no detectable binding
Description: as §1, §2

PtSHL D90A = test: ITC, PtSHL D90A; set-up: species or system Populus trichocarpa; details: 20 °C, pH 8.0, NDB, no detectable binding
Description: as §1, §2

PtSHL + H3K4me3 = molecular target: T1, PtSHL + H3K4me3 (Populus trichocarpa, UniProt B9H0V2); test: Competitive ITC, PtSHL pre-saturated with 2-fold excess H3(1-15)K4me3; details: ITC binding stoichiometry
T1 sequence (B9H0V2 1-215): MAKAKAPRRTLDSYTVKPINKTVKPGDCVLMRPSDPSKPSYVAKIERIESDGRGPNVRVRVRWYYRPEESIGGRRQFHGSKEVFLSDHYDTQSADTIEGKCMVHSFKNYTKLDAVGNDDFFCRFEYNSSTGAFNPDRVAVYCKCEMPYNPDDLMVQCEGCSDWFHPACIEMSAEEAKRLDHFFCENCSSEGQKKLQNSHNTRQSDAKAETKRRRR
Description: To further investigate the binding mechanism of H3K4me3 and H3K27me3 by the two domains of SHL, we performed competitive binding assays.
The interaction between SHL and histone peptides was monitored on a Microcal PEAQ-ITC instrument (Malvern) at 20 °C. An additional artificial tyrosine residue was added to the C-terminus of the peptide in the ITC experiment for accurately measuring the concentration of peptide by OD280. The protein was dialyzed against a buffer of 100 mM NaCl and 20 mM Tris-HCl, pH 8.0 for 3 h and the lyophilized peptides were dissolved into the same buffer. The titration data were fit using the program Origin 7.0.

full-length AtSHL [2] = test: Histone peptide pulldown, full-length AtSHL; assay type: binding, Arabidopsis thaliana; details: biotinylated histone peptides, 2 μg GST-tagged SHL, 50 mM Tris-HCl, pH 8.0, 300 mM NaCl, 3 h at 4 °C; anti-GST immunoblot
Description: The […] biotinylated histone peptides were first incubated with 62.5 μl magnetic streptavidin bead slurry (NEB) pre-washed with 1 ml peptide binding buffer (50 mM Tris-HCl, pH 8.0, 300 mM NaCl, 0.1% Nonidet P-40) for 1 h at 4 °C. The peptide-bound beads were washed twice with 1 ml of peptide binding buffer and then incubated with 2 μg GST-tagged SHL proteins in the peptide binding buffer for 3 h at 4 °C. After washing three times with binding buffer, protein-bead complex was boiled in 1XSDS loading buffer (50 mM Tris-HCl, pH 6.8, 2% sodium dodecyl sulfate, 0.01% bromophenol blue, 2 mM dithiothreitol and 2 mM β-mercaptoethanol), subjected to SDS-PAGE gel, and detected with an anti-GST antibody (CAB4169, Thermo Fisher, 1:3000). The raw images of the western blots can be found in Supplementary Fig. 6a.

PtSHL H88A = test: ITC, PtSHL H88A; set-up: species or system Populus trichocarpa; details: 20 °C, pH 8.0, NDB, no detectable binding
Description: as §1, §2

PtSHL W63A = test: ITC, PtSHL W63A; set-up: species or system Populus trichocarpa; details: 20 °C, pH 8.0, NDB, no detectable binding
Description: as §1, §2

[3] = molecular target: SHL from Populus trichocarpa (PtSHL), wild type (Populus trichocarpa); test: ITC; PtSHL pre-saturated with 2-fold excess H3(20-36)K27me3 peptide, titrated by H3(1-15)K4me3 peptide; 20 °C, 100 mM NaCl, 20 mM Tris-HCl pH 8.0
[4] = molecular target: SHL from Populus trichocarpa (PtSHL), wild type (Populus trichocarpa); test: ITC; Microcal PEAQ-ITC, 20 °C; 100 mM NaCl, 20 mM Tris-HCl pH 8.0; protein titrated by peptide
[5] = molecular target: SHL from Populus trichocarpa (PtSHL), wild type (Populus trichocarpa); test: ITC; PtSHL pre-saturated with 2-fold excess H3(1-15)K4me3 peptide, titrated by H3(20-36)K27me3 peptide; 20 °C, 100 mM NaCl, 20 mM Tris-HCl pH 8.0
[6] = molecular target: Arabidopsis SHORT LIFE (AtSHL), full length, tag removed (Arabidopsis) (UniProt Q9FEN9); test: ITC; Microcal PEAQ-ITC, 20 °C; 100 mM NaCl, 20 mM Tris-HCl pH 8.0; protein titrated by peptide
PtSHL Q156A = molecular target: T2, PtSHL Q156A (Populus trichocarpa); test: ITC
T2 chain: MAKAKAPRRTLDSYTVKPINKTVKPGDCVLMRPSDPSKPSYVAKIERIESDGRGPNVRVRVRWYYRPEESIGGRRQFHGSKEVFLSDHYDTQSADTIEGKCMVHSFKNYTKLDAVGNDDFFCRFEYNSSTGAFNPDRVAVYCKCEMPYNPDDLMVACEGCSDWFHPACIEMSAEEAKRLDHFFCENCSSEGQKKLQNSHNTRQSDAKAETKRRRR

PtSHL Y148A = molecular target: T3, PtSHL Y148A (Populus trichocarpa); test: ITC
T3 chain: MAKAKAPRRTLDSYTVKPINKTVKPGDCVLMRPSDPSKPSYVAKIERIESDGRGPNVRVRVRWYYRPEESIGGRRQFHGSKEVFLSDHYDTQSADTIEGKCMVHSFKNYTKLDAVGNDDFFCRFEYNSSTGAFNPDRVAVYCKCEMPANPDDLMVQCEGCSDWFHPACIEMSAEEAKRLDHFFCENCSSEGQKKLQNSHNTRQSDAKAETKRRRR

H3K4me2 = molecular target: T4, H3K4me2 (Arabidopsis thaliana); test: ITC
T4 chain: ARTK(Me2)QTARKSTGGKAY

H3K4me1 = molecular target: T5, H3K4me1 (Arabidopsis thaliana); test: ITC
T5 chain: ARTK(Me)QTARKSTGGKAY

[7] = molecular target: B2; test: ITC

Chain of Arabidopsis SHORT LIFE (AtSHL), full length, tag removed (Arabidopsis) (Q9FEN9 whole entry): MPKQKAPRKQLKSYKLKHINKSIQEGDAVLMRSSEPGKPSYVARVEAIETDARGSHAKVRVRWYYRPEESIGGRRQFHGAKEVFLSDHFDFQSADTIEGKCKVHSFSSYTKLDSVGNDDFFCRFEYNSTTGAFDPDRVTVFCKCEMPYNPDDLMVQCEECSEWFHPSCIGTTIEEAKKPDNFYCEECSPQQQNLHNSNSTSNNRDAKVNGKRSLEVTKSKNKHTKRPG

Molecule: CC(C)C[C@H](N)C(=O)N[C@@H](C)C(=O)N[C@H](C(=O)N[C@@H](CCCCN)C(=O)N[C@@H](C)C(=O)N[C@@H](C)C(=O)N[C@@H](CCCNC(=N)N)C(=O)N[C@@H](CCCC[N+](C)(C)C)C(=O)N[C@@H](CO)C(=O)N[C@@H](C)C(=O)N1CCC[C@H]1C(=O)N[C@@H](C)C(=O)N[C@H](C(=O)NCC(=O)NCC(=O)N[C@H](C(=O)N[C@@H](CCCCN)C(=O)N[C@@H](Cc1ccc(O)cc1)C(=O)O)C(C)C)[C@@H](C)O)[C@@H](C)O [H3K27me3]
Kd (PtSHL Y65A): NDB and abolished
Kd (PtSHL Y41A): NDB and abolished
binding on histone peptide microarray (full-length AtSHL [1]): preferentially binds; also recorded: strong binding affinity
Kd (PtSHL): 21.3 µM
Kd (PtSHL D90A): NDB and abolished
N-value (PtSHL + H3K4me3): 0.818
binding in histone peptide pulldown (full-length AtSHL [2]): capable of binding
Kd (PtSHL H88A): NDB and abolished
Kd (PtSHL W63A): NDB and abolished

Molecule: H3(1-35)K4me3K27me3 peptide with an additional C-terminal tyrosine (ITC)
Kd [4]: 16.9 µM
stoichiometry N [4]: 1.17

Molecule: H3K27me1 peptide with an additional C-terminal tyrosine (ITC)
Kd [6]: 78.3 µM

Molecule: B2
Kd (H3K4me2): 23.9 µM
Kd (H3K4me1): 67.1 µM

The remaining lines, values ahead:

Kd [3]: 27.6 µM
Kd [4]: 20.6 µM
Molecule: H3(1-15)K4me3 peptide with an additional C-terminal tyrosine (ITC)

Kd [5]: 18.7 µM
Kd [6]: 15.1 µM
Kd [4]: 21.3 µM
Molecule: H3(20-36)K27me3 peptide with an additional C-terminal tyrosine (ITC)

Kd [6]: 30.8 µM
Molecule: H3K27me2 peptide with an additional C-terminal tyrosine (ITC)

Kd (PtSHL Q156A): 66.1 µM
Kd (PtSHL Y148A): 44 µM
B1: H3(1-15)K4me3 peptide with an additional C-terminal tyrosine (ITC) (peptide)
chain: ARTK(Me3)QTARKSTGGKAY

Kd [7]: 58.1 µM
B3: H3K27me1 peptide with an additional C-terminal tyrosine (ITC) (peptide)
chain: LATKAARK(Me)SAPATGGVKY

Kd [7]: 28.9 µM
B4: H3K27me2 peptide with an additional C-terminal tyrosine (ITC) (peptide)
chain: LATKAARK(Me2)SAPATGGVKY

— paper PMC6013494, “Dual recognition of H3K4me3 and H3K27me3 by a plant histone reader SHL” (Nature Communications, 2018)
